Laboratory results published in article PMC7924616.

Target: Gorilla bocavirus 1 (GBoV1) VP3, assembled as virus-like particles (VP3-only capsids) (Gorilla bocavirus 1)
Experiment: cryo-EM structure; purified GBoV1 VLPs (wild-type and VP3-only) in 1x PBS vitrified on holey carbon grids; Titan Krios 300 kV; cisTEM reconstruction with imposed icosahedral symmetry; 2.76 Å

Q: “Gorilla bocavirus 1 (GBoV1) VP3, assembled as virus-like particles (VP3-only capsids) (natural protein)” was tested. Which stoichiometry N did it give?
A: Its stoichiometry N is 60.
